Columns and labels:
Test in all cases: cell-bound Gaussia luciferase activity (equilibrium binding on intact cells); Jurkat (CD3, CD45) or U266 (HLA-A2) cells, 1 h at 37 °C with increasing concentrations of GpL fusion proteins, washed five times with ice-cold PBS; specific binding = total minus non-specific
Conditions in all cases: partners not purified
CD45 on cells = molecular target: T1, CD45 on cells (Homo sapiens (Jurkat, THP-1), UniProt P08575)
T1 construct: CD45 on the surface of human cell lines; also called pan-hematopoietic lineage marker CD45; source: on THP-1 cells (functional assays)
T1 sequence (P08575 26-1306): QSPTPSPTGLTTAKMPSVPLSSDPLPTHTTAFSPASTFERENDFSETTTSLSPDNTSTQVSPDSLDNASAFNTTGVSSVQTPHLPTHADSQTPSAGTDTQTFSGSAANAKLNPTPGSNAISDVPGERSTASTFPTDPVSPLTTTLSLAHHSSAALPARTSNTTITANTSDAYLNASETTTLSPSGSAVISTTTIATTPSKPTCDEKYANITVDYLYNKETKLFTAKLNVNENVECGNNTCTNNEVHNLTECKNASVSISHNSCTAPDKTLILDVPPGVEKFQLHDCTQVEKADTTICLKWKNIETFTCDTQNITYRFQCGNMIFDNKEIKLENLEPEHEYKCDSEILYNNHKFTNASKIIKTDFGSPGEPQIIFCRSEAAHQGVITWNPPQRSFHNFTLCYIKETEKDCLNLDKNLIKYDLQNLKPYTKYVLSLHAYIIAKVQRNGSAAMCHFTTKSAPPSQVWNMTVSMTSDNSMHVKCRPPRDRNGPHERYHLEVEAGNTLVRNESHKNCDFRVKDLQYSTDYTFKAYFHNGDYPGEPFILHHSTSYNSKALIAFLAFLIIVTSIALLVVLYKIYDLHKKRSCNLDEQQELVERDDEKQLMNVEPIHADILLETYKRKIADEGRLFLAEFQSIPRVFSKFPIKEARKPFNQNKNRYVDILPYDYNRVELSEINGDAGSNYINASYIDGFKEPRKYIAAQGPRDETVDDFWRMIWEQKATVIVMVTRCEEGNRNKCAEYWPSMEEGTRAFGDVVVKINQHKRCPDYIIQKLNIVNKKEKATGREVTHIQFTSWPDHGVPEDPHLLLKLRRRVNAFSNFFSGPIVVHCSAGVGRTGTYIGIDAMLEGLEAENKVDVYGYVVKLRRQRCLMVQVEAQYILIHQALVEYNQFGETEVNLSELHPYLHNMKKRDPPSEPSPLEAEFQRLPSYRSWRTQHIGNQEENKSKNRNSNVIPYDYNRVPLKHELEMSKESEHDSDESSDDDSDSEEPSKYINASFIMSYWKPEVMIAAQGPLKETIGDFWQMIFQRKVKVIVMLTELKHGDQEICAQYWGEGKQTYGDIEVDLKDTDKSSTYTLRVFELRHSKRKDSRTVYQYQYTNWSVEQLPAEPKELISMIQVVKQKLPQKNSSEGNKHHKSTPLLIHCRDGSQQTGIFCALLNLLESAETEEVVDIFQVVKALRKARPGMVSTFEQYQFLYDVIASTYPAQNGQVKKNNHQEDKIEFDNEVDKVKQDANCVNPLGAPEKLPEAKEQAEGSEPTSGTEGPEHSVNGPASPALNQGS

HLA-A2 on cells = molecular target: T2, HLA-A2 on cells (Homo sapiens, HLA-A*02:01 (allele …, strain))
T2 construct: HLA-A2 on the surface of HLA-A2-positive human cell lines; source: on THP-1 cells (functional assays)

CD3 on Jurkat cells = molecular target: T3, CD3 on Jurkat cells (Homo sapiens (Jurkat, donor T cells), UniProt P07766)
T3 construct: CD3ε, the chain addressed by the diL2K scFv, on the surface of CD3-positive cells; On cells CD3ε stands within the TCR-CD3 complex; also called CD3ε; CD3 antigen; source: on donor T cells (functional assays)

B1: scFvαCD45-GpL (scFv, V domains shown)
VH: QVQLVESGGGLVQPGGSLKLSCAASGFDFSRYWMSWVRQAPGKGLEWIGEINPTSSTINFTPSLKDKVFISRDNAKNTLYLQMSKVRSEDTALYYCARGNYYRYGDAMDYWGQGTSVTVSG
VL: DIVLTQSPASLAVSLGQRATISCRASKSVSTSGYSYLHWYQQKPGQPPKLLIYLASNLESGVPARFSGSGSGTDFTLNIHPVEEEDAATYYCQHSRELPFTFGSGTKLEIK
notes: as the scFv of m2 (GenBank MN432904); Expression plasmid pCR3; also called scFvCD45-GpL; anti-CD45 scFv fused to Gaussia princeps luciferase; source: Hek293, electroporated, secreted, in supernatant
CD45 on cells
  Kd: 11.8 nM

B2: scFvαHLA-A2-GpL (scFv, V domains shown)
VH: QVQLVQSGGGVVQPGGSLRVSCAASGVTLSDYGMHWVRQAPGKGLEWMAFIRNDGSDKYYADSVKGRFTISRDNSKKTVSLQMSSLRAEDTAVYYCAKNGESGPLDYWYFDLWGRGTLVTVSS
VL: DVVMTQSPSSLSASVGDRVTITCQASQDISNYLNWYQQKPGKAPKLLIYDASNLETGVPSRFSGSGSGTDFTFTISSLQPEDFATYYCQQYSSFPLTFGGGTKVDIK
notes: scFv of the human anti-HLA-A2/A28 antibody clone 3PF12 (VH GenBank AF163307, VL GenBank AF163308); as the scFv of m1 (GenBank MN432902); Expression plasmid pCR3; also called scFvHLA-A2-GpL; anti-HLA-A2 scFv fused to Gaussia princeps luciferase; source: Hek293, electroporated, secreted, in supernatant
HLA-A2 on cells
  Kd: 0.9 nM

B3: scFvαCD3-GpL (scFv, V domains shown)
VH: DVQLVQSGAEVKKPGASVKVSCKASGYTFTRYTMHWVRQAPGQGLEWIGYINPSRGYTNYADSVKGRFTITTDKSTSTAYMELSSLRSEDTATYYCARYYDDHYCLDYWGQGTTVTVSS
VL: DIVLTQSPATLSLSPGERATLSCRASQSVSYMNWYQQKPGKAPKRWIYDTSKVASGVPARFSGSGSGTDYSLTINSLEAEDAATYYCQQWSSNPLTFGGGTKVEIK
notes: scFv of the anti-CD3ε antibody diL2K (de-immunized version of mouse monoclonal L2K); as the anti-CD3 scFv of m3 (GenBank MN432903); Expression plasmid pCR3; also called scFvCD3-GpL; anti-CD3 scFv fused to Gaussia princeps luciferase; source: Hek293, electroporated, secreted, in supernatant
CD3 on Jurkat cells
  Kd: 11.1 nM

From paper PMC6879491 (Nature Communications, 2019)
